Here are results for three molecules from paper PMC8704557 (International Journal of Molecular Sciences, 2021).

For data set [1], the target named is T1, Dye-LDH complex (recombinant dye-linked L-lactate dehydrogenase, STK16540 (α) / STK16550 (β), α3β3) (Sulfurisphaera tokodaii, UniProt Q970D7).
T1 construct: gene ST1655; gene cluster stk_16540-16570 expressed in Sulfolobus acidocaldarius SK1; N-terminal His-tag on STK16540 kept; purified α3β3 heterohexamer, about 253 kDa (subunits 30 and 40 kDa by SDS-PAGE; STK16550 43 kDa); stk_16560 and stk_16570 products not in the purified complex; with Dye-linked L-lactate dehydrogenase, alpha subunit (hypothetical protein with Fe-S cluster motif)
T1 sequence (Q970D7 1-383): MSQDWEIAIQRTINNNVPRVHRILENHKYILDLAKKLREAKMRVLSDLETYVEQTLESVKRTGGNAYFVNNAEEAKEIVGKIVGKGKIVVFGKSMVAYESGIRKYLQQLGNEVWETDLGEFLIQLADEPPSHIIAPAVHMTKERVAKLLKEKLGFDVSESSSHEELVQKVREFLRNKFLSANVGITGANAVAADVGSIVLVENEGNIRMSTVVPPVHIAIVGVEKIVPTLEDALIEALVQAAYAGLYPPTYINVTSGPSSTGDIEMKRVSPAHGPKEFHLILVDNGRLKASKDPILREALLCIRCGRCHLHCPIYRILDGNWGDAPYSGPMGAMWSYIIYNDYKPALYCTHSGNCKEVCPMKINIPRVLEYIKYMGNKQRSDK
T1 sequence (Q970D8 1-287 partner): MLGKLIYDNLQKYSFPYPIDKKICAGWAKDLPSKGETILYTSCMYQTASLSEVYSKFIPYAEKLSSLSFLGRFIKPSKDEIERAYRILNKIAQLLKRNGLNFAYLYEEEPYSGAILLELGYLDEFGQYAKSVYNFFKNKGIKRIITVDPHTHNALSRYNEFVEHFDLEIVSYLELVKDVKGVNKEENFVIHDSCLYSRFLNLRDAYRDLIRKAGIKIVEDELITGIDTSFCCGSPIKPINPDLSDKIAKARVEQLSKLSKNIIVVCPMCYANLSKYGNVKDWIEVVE
Briefly: flavin extracted from purified enzyme, identified by HPLC. Type of data set: binding. To be noted: prosthetic group co-purified with the complex.

In data set [2] the target is STK16540 protein (product of stk_16540), alpha subunit of the Dye-LDH complex (Sulfurisphaera tokodaii). The experiment in a line: native gel or EMSA; native gradient PAGE (Novex NativePAGE Bis-Tris gel system) of the purified enzyme; single protein of approximately 253 kDa; subunit masses from SDS-PAGE. Background: A gel shift assay detects complexes by their altered migration in electrophoresis.

Substrate in data set [3]: C[C@H](O)C(=O)O
The experiment in a line: purified protein. To be noted: electron donor, standard assay 0.2 mM DCIP, 200 mM PIPES-NaOH pH 6.5, 60 °C, free enzyme.

Substrate in data set [4]: O=C1C(Cl)=CC(=Nc2ccc(O)cc2)C=C1Cl
Briefly: purified protein. Type of data set: biochemical, Sulfurisphaera tokodaii. To be noted: electron acceptor, standard assay 40 mM L-lactate, 200 mM PIPES-NaOH pH 6.5, 60 °C, free enzyme.

What is called Km is the substrate concentration at which the rate is half of its maximum.

`Cc1cc2nc3c(=O)[nH]c(=O)nc-3n(C[C@H](O)[C@H](O)[C@H](O)COP(=O)(O)O)c2cc1C` [FMN]: the “flavin extracted from purified enzyme, identified by HPLC” value in data set [1] is listed as “the flavin compound in the enzyme extract was identified as FMN”.
For the molecule “Dye-LDH homolog (product of stk_16550), beta subunit of the Dye-LDH complex (enzyme)”, in data set [2], the stoichiometry N (β per α (3:3)) was determined as 1.

B1: Dye-LDH complex (recombinant dye-linked L-lactate dehydrogenase, STK16540 (α) / STK16550 (β), α3β3) (Sulfurisphaera tokodaii str. 7) (protein)
chain: T1 sequence (Q970D7 1-383)
notes: gene cluster stk_16540-16570 expressed in Sulfolobus acidocaldarius SK1; N-terminal His-tag on STK16540 kept; purified α3β3 heterohexamer, about 253 kDa (subunits 30 and 40 kDa by SDS-PAGE; STK16550 43 kDa); stk_16560 and stk_16570 products not in the purified complex; with Dye-linked L-lactate dehydrogenase, alpha subunit (hypothetical protein with Fe-S cluster motif)
In the case of B1, the results for the Km in “purified protein [3]” and in the data set “purified protein [4]” were 199 µM and 200 µM, respectively.
